According to the supplement of paper PMC10126150:
± gives the standard deviation of the averaged measurements.

test system: ATP; assay: switch fluorescence ratio, 500 uM ATP over buffer (Cy3 cluster intensity, sum of 5 cycles each) (fold (ratio)); higher = stronger signal-on switching upon ATP binding; sequences stand for … in TCGTCGGCAGCGTCAGATGTGTATAAGAGACAGTTTTTTTTTTTTTTTTTTTTTTTTT…TC; details: aptamer strand: ATP DNA aptamer (quencher-CACCTGGGGGAGTATTGCGGAGGAAGG + anchor), 100 nM annealed; ATP concentration: 500 uM
How it was run: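 Clusters with intensities outside 100-1000 RFU were excluded. The remaining Cy3-labelled switching-strand clusters on a modified Illumina MiSeq flow-cell had been annealed to 100 nM quencher-labelled ATP aptamer and imaged in selection buffer, then after 15 min with 500 uM ATP at 22 °C, for five cycles separated by NaOH stripping and re-annealing. The fluorescence ratio, averaged per switch-domain sequence, is each cluster's summed target-cycle Cy3 intensity over its summed buffer-cycle Cy3 intensity.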
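Also: ATP exposure 15 min at 22 °C before imaging.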

Sequence | switch fluorescence ratio
AGGGTGCTCG | 1.02 ± 0.047
AGGGTGGGGG | 1.03 ± 0.036
AGGGTGGGTA | 0.9768 ± 0.0053
AGGGTGGTGT | 0.976 ± 0.039
AGGGTGGTTT | 0.997 ± 0.02
AGGGTGTGCC | 1.01 ± 0.018
AGGGTTAACA | 1.01 ± 0.016
AGGGTTAGCA | 1.02 ± 0.021
AGGGTTATCG | 1.02 ± 0.018
AGGGTTCTGG | 0.971 ± 0.028
AGGGTTGCAT | 0.9863 ± 0.0025
AGGGTTGGCA | 0.998 ± 0.029
AGGGTTGGGT | 1.01 ± 0.03
AGGGTTTGGG | 1.01 ± 0.038
AGGTAAACGT | 1.05 ± 0.083
AGGTAAATTA | 0.9982 ± 0.0076
AGGTAACTGT | 1.01 ± 0.051
AGGTAAGCTA | 1.025 ± 0.005
AGGTAAGGGT | 0.974 ± 0.035
AGGTAATAGC | 1.05 ± 0.0078
AGGTACCGTT | 1.033 ± 0.0017
AGGTACGTGG | 0.996 ± 0.059
AGGTAGAGAG | 0.992 ± 0.038
AGGTAGCACA | 1.056 ± 0.0036
AGGTAGGCGT | 0.97539 ± 0.00061
AGGTAGTTTA | 1.02 ± 0.045

Sequence | switch fluorescence ratio
AGGTATGCGT | 0.985 ± 0.041
AGGTATTGGA | 0.985 ± 0.015
AGGTATTTG | 0.986 ± 0.013
AGGTCATGTA | 1.01 ± 0.026
AGGTCCGACG | 0.967 ± 0.041
AGGTCGAATT | 1 ± 0.051
AGGTCGGGAG | 0.9895 ± 0.0072
AGGTCGTCGT | 0.955 ± 0.017
AGGTCGTGGG | 0.996 ± 0.016
AGGTCTATGC | 0.975 ± 0.016
AGGTCTATTG | 1.06 ± 0.09
AGGTCTGCGG | 0.967 ± 0.025
AGGTCTTTCG | 1.002 ± 0.003
AGGTGACGGT | 0.9809 ± 0.0085
AGGTGAGGCA | 1.05 ± 0.097
AGGTGCCGTG | 1.02 ± 0.083
AGGTGCTGGG | 1.03 ± 0.013
AGGTGGGGAT | 0.994 ± 0.021
AGGTGGTGAC | 0.979 ± 0.018
AGGTGGTGCT | 0.991 ± 0.056
AGGTGGTGTG | 0.984 ± 0.015
AGGTGTAACA | 1.15 ± 0.2
AGGTGTGAGC | 1.03 ± 0.012
AGGTTAGGGT | 0.969 ± 0.015
AGGTTATATT | 1.01 ± 0.024
AGGTTCAAAG | 0.959 ± 0.037

Sequence | switch fluorescence ratio
AGGTTCATCT | 1.011 ± 0.0057
AGGTTGAAGG | 0.997 ± 0.016
AGGTTGAGAT | 1.04 ± 0.041
AGGTTGAGGA | 0.964 ± 0.033
AGGTTGCCGG | 1.04 ± 0.046
AGGTTGGGGC | 1.01 ± 0.052
AGGTTGTAGC | 0.998 ± 0.02
AGGTTGTCGT | 0.997 ± 0.035
AGGTTGTGAG | 0.98 ± 0.034
AGGTTGTTCT | 0.967 ± 0.035
AGGTTTATTT | 1.02 ± 0.018
AGGTTTCCGT | 1.02 ± 0.032
AGGTTTGACA | 1.027 ± 0.0067
AGGTTTGCGT | 1.01 ± 0.021
AGGTTTTCAG | 0.983 ± 0.045
AGGTTTTCGT | 1.028 ± 0.0039
AGGTTTTGGG | 0.979 ± 0.022
AGGTTTTGTG | 1.02 ± 0.044
AGGTTTTTGA | 0.991 ± 0.04
AGTAAAGGGT | 0.999 ± 0.012
AGTAAATTAT | 1.03 ± 0.027
AGTAACCGGC | 0.967 ± 0.12
AGTAACCTTG | 1.02 ± 0.022
AGTAACGCTT | 1.008 ± 0.01
AGTAACGGTA | 1.04 ± 0.012
